Test results: US20230212319A1, “NOVEL ANTIGEN BINDING DOMAINS AND SYNTHETIC ANTIGEN RECEPTORS INCORPORATING THE SAME” (University of Southern California, priority 2020, published 2023)

Assays:
Format in all cases: cell-based
Nalm6 cells = assay: JNG assay, co-culture with Nalm6 cells; details: co-culture with Nalm6
Procedure, shortened: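 Scoring uses % GFP+ reporter cells above the parental control, where +/-, +, 2+, 3+, 4+ and 5+ correspond to about 5, 10, 20, 30, 40 and 50%. Effectors were SAR-expressing Jurkat NFAT-GFP cells cocultured with targets (E:T ~1:2, ~4–18 h).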

RS;411 = assay: JNG assay, co-culture with RS;411 cells; details: co-culture with RS411
Procedure, shortened: (§1)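 Jurkat-NFAT-GFP (JNG) cells stably expressing SAR constructs via lentiviral transduction and puromycin/blasticidin selection were cocultured with target cells at E:T ~1:2 for ~4–18 h. NFAT-driven GFP was measured by FACS versus parental JNG cells; scores +/- to 5+ denote ~5–50% GFP-positive cells.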

RAJI cells = assay: JNG assay, co-culture with RAJI cells; details: JNG cells expressing construct, co-culture with Raji
Procedure, shortened: as §1

L363 cells = assay: JNG assay, co-culture with L363 cells; details: co-culture with L363
Procedure, shortened: as §1

Molecule	NFAT-GFP ASSAY: Nalm6 (Nalm6 cells)	NFAT-GFP ASSAY: RS411 (RS;411)	NFAT-GFP ASSAY: Raji (RAJI cells)	NFAT-GFP ASSAY: L363 (L363 cells)
22136 (protein) MALPVTALLLPLALLLHAARPEVQLVESGGGLVQAGGSLRLSCAASGRTFSMGWFRQAPGKEREFVAAITYSGGSPYYADSVKGRFTISRDNAKNTVYLQMNSLKPEDTAVYYCAANPTYGSDWNAENWGQGTQVTVSSGTGGGGSGGGGSGGGGSEFDIQMTQSPSSLSASVGDRVTITCKASDHINNWLAWYQQKPGQAPKLLIYGATTLETGVPSRFSGSGSGTDYTLTISSLQPEDFATYYCQQSWNTPWTFGQGTKLEIKRLEDLKNVFPPEVAVFEPSEAEISHTQKATLVCLATGFYPDHVELSWWVNGKEVHSGVCTDPQPLKEQPALNDSRYCLSSRLRVSATFWQNPRNHFRCQVQFYGLSENDEWTQDRAKPVTQIVSAEAWGRADCGFTSESYQQGVLSATILYEILLGKATLYAVLVSALVLMAMVKRKDSRGRAKRSGSGATNFSLLKQAGDVEENPGPTSATMDWIWRILFLVGAATGAHSGPQVQLQESGGGLAQAGGSLRLSCAASGRTFSMGWFRQAPGKEREFVAAITYSGGSPYYASSVRGRFTISRDNAKNTVYLQMNSLKPEDTAVYYCAANPTYGSDWNAENWGQGTQVTVSSGSGGGGSGGGGSGGGGSFEQVQLQQPGAELVKPGASVKMSCKASGYAFSSYWINWMKQKPGQGLEWIGQIYPGDGDTNYNGKFKGRATLTADTSSSTAYMQLSSLTSEDSAVYFCARSITTVVGCAMDYWGQGTSVTVSSTRIQNPDPAVYQLRDSKSSDKSVCLFTDFDSQTNVSQSKDSDVYITDKCVLDMRSMDFKSNSAVAWSNKSDFACANAFNNSIIPEDTFFPSPESSCDVKLVEKSFETDTNLNFQNLSVIGFRILLLKVAGFNLLMTLRLWSSRAKRSGSGVKQTLNFDLLKLAGDVESNPGPSRGHMTEYKPTVRLATRDDVPRAVRTLAAAFADYPATRHTVDPDRHIERVTELQELFLTRVGLDIGKVWVADDGAAVAVWTTPESVEAGAVFAEIGPRMAELSGSRLAAQQQMEGLLAPHRPKEPAWFLATVGVSPDHQGKGLGSAVVLPGVEAAERAGVPAFLETSAPRNLPFYERLGFTVTADVEVPEGPRTWCMTRKPGA	+ (refer to approximately 5%, 10%, 20%, 30%, 40% and 50% GFP positive cells)	+ (refer to approximately 5%, 10%, 20%, 30%, 40% and 50% GFP positive cells)	3+ (refer to approximately 5%, 10%, 20%, 30%, 40% and 50% GFP positive cells)	
22123 (protein) MALPVTALLLPLALLLHAARPACEVQLLESGGGLIQPGGSLRLSCAASGFTFSSHAMTWVRQAPGKGLEWVSAISGSGDYTHYADSVKGRFTISRDNSKNTVYLQMNSLRAEDSAVYYCAKDEDGGSLLGHRGQGTLVTVSSGTGGGGSGGGGSGGGGSEFDIQMTQSPSSLSASVGDRVTITCKASDHINNWLAWYQQKPGQAPKLLIYGATTLETGVPSRFSGSGSGTDYTLTISSLQPEDFATYYCQQSWNTPWTFGQGTKLEIKRLEDLKNVFPPEVAVFEPSKAEIAHTQKATLVCLATGFYPDHVELSWWVNGKEVHSGVCTDPQPLKEQPALNDSRYCLSSRLRVSATFWQNPRNHFRCQVQFYGLSENDEWTQDRAKPVTQIVSAEAWGRADCGITSASYHQGVLSATILYEILLGKATLYAVLVSALVLMAMVKRKDSRGRAKRSGSGATNFSLLKQAGDVEENPGPTSATMDWIWRILFLVGAATGAHSGPQVQLQESGGGLAQAGGSLRLSCAASGRTFSMGWFRQAPGKEREFVAAITYSGGSPYYASSVRGRFTISRDNAKNTVYLQMNSLKPEDTAVYYCAANPTYGSDWNAENWGQGTQVTVSSGSGGGGSGGGGSGGGGSFEQVQLQQPGAELVKPGASVKMSCKASGYAFSSYWINWMKQKPGQGLEWIGQIYPGDGDTNYNGKFKGRATLTADTSSSTAYMQLSSLTSEDSAVYFCARSITTVVGCAMDYWGQGTSVTVSSTRIQNPDPAVYQLRDSKSSDKSVCLFTDFDSQTNVSQSKDSDVYITDKCVLDMRSMDFKSNSAVAWSNKSDFACANAFNNSIIPEDTFFPSSDVPCDVKLVEKSFETDTNLNFQNLSVIGFRILLLKVAGFNLLMTLRLWSSRAKRSGSGVKQTLNFDLLKLAGDVESNPGPSRGHMTEYKPTVRLATRDDVPRAVRTLAAAFADYPATRHTVDPDRHIERVTELQELFLTRVGLDIGKVWVADDGAAVAVWTTPESVEAGAVFAEIGPRMAELSGSRLAAQQQMEGLLAPHRPKEPAWFLATVGVSPDHQGKGLGSAVVLPGVEAAERAGVPAFLETSAPRNLPFYERLGFTVTADVEVPEGPRTWCMTRKPGA	5+ (refer to approximately 5%, 10%, 20%, 30%, 40% and 50% GFP positive cells)	4+ (refer to approximately 5%, 10%, 20%, 30%, 40% and 50% GFP positive cells)		3+ (refer to approximately 5%, 10%, 20%, 30%, 40% and 50% GFP positive cells)
22132 (protein) MALPVTALLLPLALLLHAARPACEVQLLESGGGLIQPGGSLRLSCAASGFTFSSHAMTWVRQAPGKGLEWVSAISGSGDYTHYADSVKGRFTISRDNSKNTVYLQMNSLRAEDSAVYYCAKDEDGGSLLGHRGQGTLVTVSSGTGGGGSGGGGSGGGGSEFDIQMTQSPSSLSASVGDRVTITCKASDHINNWLAWYQQKPGQAPKLLIYGATTLETGVPSRFSGSGSGTDYTLTISSLQPEDFATYYCQQSWNTPWTFGQGTKLEIKRLEDLKNVFPPEVAVFEPSKAEIAHTQKATLVCLATGFYPDHVELSWWVNGKEVHSGVCTDPQPLKEQPALNDSRYCLSSRLRVSATFWQNPRNHFRCQVQFYGLSENDEWTQDRAKPVTQIVSAEAWGRADCGITSASYHQGVLSATILYEILLGKATLYAVLVSALVLMAMVKRKDSRGRAKRSGSGATNFSLLKQAGDVEENPGPTSATMDWIWRILFLVGAATGAHSGPEVQLVESGGGLVQAGGSLRLSCAASGRTFSMGWFRQAPGKEREFVAAITYSGGSPYYADSVKGRFTISRDNAKNTVYLQMNSLKPEDTAVYYCAANPTYGSDWNAENWGQGTQVTVSSGSGGGGSGGGGSGGGGSFEQVQLQQPGAELVKPGASVKMSCKASGYAFSSYWINWMKQKPGQGLEWIGQIYPGDGDTNYNGKFKGRATLTADTSSSTAYMQLSSLTSEDSAVYFCARSITTVVGCAMDYWGQGTSVTVSSTRIQNPDPAVYQLRDSKSSDKSVCLFTDFDSQTNVSQSKDSDVYITDKCVLDMRSMDFKSNSAVAWSNKSDFACANAFNNSIIPEDTFFPSSDVPCDVKLVEKSFETDTNLNFQNLSVIGFRILLLKVAGFNLLMTLRLWSSRAKRSGSGVKQTLNFDLLKLAGDVESNPGPSRGHMTEYKPTVRLATRDDVPRAVRTLAAAFADYPATRHTVDPDRHIERVTELQELFLTRVGLDIGKVWVADDGAAVAVWTTPESVEAGAVFAEIGPRMAELSGSRLAAQQQMEGLLAPHRPKEPAWFLATVGVSPDHQGKGLGSAVVLPGVEAAERAGVPAFLETSAPRNLPFYERLGFTVTADVEVPEGPRTWCMTRKPGA	5+ (refer to approximately 5%, 10%, 20%, 30%, 40% and 50% GFP positive cells)	4+ (refer to approximately 5%, 10%, 20%, 30%, 40% and 50% GFP positive cells)		4+ (refer to approximately 5%, 10%, 20%, 30%, 40% and 50% GFP positive cells)
22068 (protein) MALPVTALLLPLALLLHAARPQLQLQESGPGLVKPSETLSLTCTVSGDSISSGDYYWGWIRQPPGKGLEWIGHIYYSGVTYYNPSLKSRVTISVDTSRNQFSLKLSSVTAADTAVYYCTREDSSNWRSRGQGTLVTVSSLEGGGGSGGGGSGGGGSVEDLKNVFPPEVAVFEPSKAEIAHTQKATLVCLATGFYPDHVELSWWVNGKEVHSGVCTDPQPLKEQPALNDSRYCLSSRLRVSATFWQNPRNHFRCQVQFYGLSENDEWTQDRAKPVTQIVSAEAWGRADCGITSASYHQGVLSATILYEILLGKATLYAVLVSALVLMAMVKRKDSRGRAKRSGSGATNFSLLKQAGDVEENPGPTSMDWIWRILFLVGAATGAHSFEVQLLESGGGLIQPGGSLRLSCAASGFTFSSHAMTWVRQAPGKGLEWVSAISGSGDYTHYADSVKGRFTISRDNSKNTVYLQMNSLRAEDSAVYYCAKDEDGGSLLGHRGQGTLVTVSSTRIQNPDPAVYQLRDSKSSDKSVCLFTDFDSQTNVSQSKDSDVYITDKCVLDMRSMDFKSNSAVAWSNKSDFACANAFNNSIIPEDTFFPSPESSCDVKLVEKSFETDTNLNFQNLSVIGFRILLLKVAGFNLLMTLRLWSSRAKRSGSGVKQTLNFDLLKLAGDVESNPGPSRGHMTEYKPTVRLATRDDVPRAVRTLAAAFADYPATRHTVDPDRHIERVTELQELFLTRVGLDIGKVWVADDGAAVAVWTTPESVEAGAVFAEIGPRMAELSGSRLAAQQQMEGLLAPHRPKEPAWFLATVGVSPDHQGKGLGSAVVLPGVEAAERAGVPAFLETSAPRNLPFYERLGFTVTADVEVPEGPRTWCMTRKPGA	+/- (refer to approximately 5%, 10%, 20%, 30%, 40% and 50% GFP positive cells)	+/- (refer to approximately 5%, 10%, 20%, 30%, 40% and 50% GFP positive cells)	+ (refer to approximately 5%, 10%, 20%, 30%, 40% and 50% GFP positive cells)	+ (refer to approximately 5%, 10%, 20%, 30%, 40% and 50% GFP positive cells)
